Measured values reported in the nanobody polyreactivity screen of Harvey et al. (2022).

Assay: yeast display, Sf9 membrane polyspecificity reagent, FACS + sequencing; frameworks hold sequencing errors
Summary of the method: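 In a synthetic yeast display library (Saccharomyces cerevisiae BJ5465), nanobody expression was induced with galactose for 36–48 hours. FACS gates were set low and high (top ~1%) using anti-HA fluorescence for expression and streptavidin fluorescence for binding of the Sf9 membrane reagent. Each polyreactivity label is drawn from the gate of origin.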

Row | Sequence | polyreactivity (PSR sort gate)
1 | QVQLVESGGGLVQAGGSLSLSCAASGFIFYRYAMGWYRQAPGKERELVAGISSRGGSTYYADSVKGRFTISRDNAKNTVYLQMNSLKPEDTAVYYCAKRPLTSNASQGDYWGQGTQVTVSS | high polyreactivity
2 | QVQLVESGGGLVQAGGSLSLSCAASGFTFDYYAMGWYRQAPGKERELVAAISTSGGSTYYADSVKGRFTISRDNAMNTVYLQMNSLKPEDTAVYYCNVVFYEYSSVSYDYWGQGTQVTVSS | high polyreactivity
3 | QVQLVESGGGLVQAGGSLSLSCAASGGIFARNVMGWYRQAPGKERELVADISGSGGSTYYADSVKGRFTISRDNAKNTVYLQMNSLKPEDTAVYYCAARTPGVSVYKDGYWGQGTQVTVSS | low polyreactivity
4 | QVQLVESGGGLVQAGGSLSLSCAASGIFKYYMGWYRQAPGKERELVAGITKRGGSTYYADSVKGRFTISRDNAKNTVYLQKNSLKPEDTAVYYCNAVGPKRYDYWGQGTQVTVSS | high polyreactivity
5 | QVQLVESGGGLVQAGGSLSLSCAASGIIFGSYAMGWYRQAPGKESELVAAITSRGSSTRYADSVKGRFTISRDNAKNTVYLQMNSLKPEDTAVYYCATKVVVAHLPGYYYWGQGTQVTVSS | high polyreactivity
6 | QVQLVESGGGLVQAGGSLSLSCAASGIIFYDYAMGWYRQAPGKERELVAVISRSGGSTYYADSVKGRFTISRDNAKNTVYLQMNSLNPEDTAVYYCARAYSLRVVTGDYWGQGTQVTVSS | high polyreactivity
7 | QVQLVESGGGLVQAGGSLSLSCAASGITFVFYTMGWYRQAPGKERELVAAISRSGASTYYADSVKGRFTISRDNAKNTVYLQMNSLKPQDTAVDYCAADRGYRFRMDYWGQGTQVTVSS | high polyreactivity
8 | QVQLVESGGGLVQAGGSLSLSCAASGLILSDNAMGWYRQAPGKEREFVASITSSGGSTHYADSVKGRFTISRDNAKNTVYFQMNSLKPEDTAVYYCAKDYYEGDSYPYPGYEYWGQGTQVTVSS | low polyreactivity
9 | QVQLVESGGGLVQAGGSLSLSCAASGLTFRSYTMGWYRQAPGKERELVAAISSGGSTYYADSVKGRFTISRDNAKNTVYLQMNSLKPEDTAVYYCAAPRGHGKYYSWGQGTQVTVSS | high polyreactivity
10 | QVQLVESGGGLVQAGGSLSLSCAASGNTLYNYPMGSYRPAPGKERELVAAISLSGGSTYYADSVKGRFTISRDNAKNTVYLQMNSLKRVDTAVYYCDADIFYYSSSYGYWGQGTQVTVSS | low polyreactivity
11 | QVQLVESGGGLVQAGGSLSLSCAASGPTFGEYVMGWYRQAPGKERELVASISRRGGSTYYADSVKGRFTISRDNAKNTVYLQMNSLKPEDTAVYYCAKYRTQWSKNLYPYGFDYWGQGTQVTVSS | low polyreactivity
12 | QVQLVESGGGLVQAGGSLSLSCAASGRIFAYYAMGWYRQAPGKERELVAGISQRGSRTYYADSVKGRFTISRDNGKNTVYLQMNSLKPEDTAVYYCAARDRRSVTMDYWGQGTQVTVSS | high polyreactivity
13 | QVQLVESGGGLVQAGGSLSLSCAASGRIFGYYAMGGYRQAPGKERELVAAITTGGNTYYAESVKGRFTISRDNAKNTVNLQMNSLKPEDTAVYYCNKRSYAYYSYAVFTWVDYWGQGTQVTVSS | low polyreactivity
14 | QVQLVESGGGLVQAGGSLSLSCAASGRIFNRNAMGWYRQAPGKERELVASISSGGRTNYADSVKGRFTISRDNAKNTFYLQMNSLKPEDTAVYYCAAKSPRILLDYWGQGTQVTVSS | low polyreactivity
15 | QVQLVESGGGLVQAGGSLSLSCAASGRIFRRYAMGWYRQAPWKERELVAAITWSGGSTYADSVKGRFTISRDNAKNTVYLQMNSLKPEDTAVYYCAARYVTTKGSFVVGYGYWGQGTQVTVSS | high polyreactivity
16 | QVQLVESGGGLVQAGGSLSLSCAASGRIFSLNVMGWYSQARGKERELVATIRGRGTSTYYADSVKGRFTISRDTAKNTVYLQMNSLKPEDTAVFYCAARGHGAYGYWGQGTQVTVSS | low polyreactivity
17 | QVQLVESGGGLVQAGGSLSLSCAASGRIFSYNDMGWYRQAPGKERELVAAITSNDGSTYYADSVKGRFTISRDNAKNTVYLQMNSLKPVDSAVSYCTADVLFLSSYGYDYWGQGTQVTVSS | low polyreactivity
18 | QVQLVESGGGLVQAGGSLSLSCAASGRIFYGYVMVWYRQAPGKERELVAAITWSGSRTYYADSVKGRFTISRDNAKNTVFLQMNSLKPADTAVYYCAARIPSDGYYYWGQGTQVTVSS | high polyreactivity
19 | QVQLVESGGGLVQAGGSLSLSCAASGRIINWYAMGWYRQATGKERELVARISSGDITSYADSVKGRFTISRDNAKNTVYLQMYSLKPEDTAVSYCAARQWFLYDYWGQGTQVTVSS | low polyreactivity
20 | QVQLVESGGGLVQAGGSLSLSCAASGRTFASNAIGWYRQAPGKERELVAAISSAGGTNYADSVKGRFTISRDNAKNTVYLQMISLKPEDTAVYYCAAASPYYSYHRYIYYYWGQGTQVTVSS | high polyreactivity
21 | QVQLVESGGGLVQAGGSLSLSCAASGRTFIRNAMGWYRQAPRKEREVVAAINSCGITNYADSVNGRFTISRDNAKNTVDLQMNSLKPEDTAVYYCANTFQYYWFSLYDYWGQGTQVTVSS | low polyreactivity
22 | QVQLVESGGGLVQAGGSLSLSCAASGRTFNNNAMGCYIPAPGKERELVAAITSGASTNYADSVKGRFTISRDNAKNTVYLQMNSLKPEDTAVYYCAKATYPHEYDYWGQGTQVTVSS | low polyreactivity

Row | Sequence | polyreactivity (PSR sort gate)
23 | QVQLVESGGGLVQAGGSLSLSCAASGRTFRVYAMGSYRQSPRKERELVAAITNGGSTNYADSVKGRFTISRDNAKNTVYLQMNSLKPEDTAVYYCARVHRSYVAAQGVYVGNYYWGQGTQVTVSS | high polyreactivity
24 | QVQLVESGGGLVQAGGSLSLSCAASGRTFRYYAMGWYRQAPGKERELVAAMRTRGASTYYADSVKGRFTISRDNAKNSVYLQMNSLKPEVSAVYYCAASRSGHGIIDYDSWGK | low polyreactivity
25 | QVQLVESGGGLVQAGGSLSLSCAASGRTFSGNAMGWYRQAPGKERELVAAINWRGGRTYYADSVKGRFTISRDNAKNTVYLQMNSLKPEDTAVYYCAAVYVFHRYIYSLYDYWGQGTQVTVSS | high polyreactivity
26 | QVQLVESGGGLVQAGGSLSLSCAASGSIFAAYTMGWYRQAPGQDRELVAAITSGGTYADSVKGRFTISRDNAKYSVYLQKNSLQPEVTAVYYCYAGNNVVVDYDYWGQGTQVTVSS | low polyreactivity
27 | QVQLVESGGGLVQAGGSLSLSCAASGSIFAGNAMGWYRQAPGKERELVAAIRWSTGSTYYADSVKGRFTISRDNAKNTVYLQMNSQKPEDTAVYYCAATDTTFYGIVRYEFWGQGTQVTVSS | low polyreactivity
28 | QVQLVESGGGLVQAGGSLSLSCAASGSIFASYAMGWYRQAPGKERELVAAITSDGNTYYADSVKGRFTISRDNAKNTVYLQMNSLKPEDTAVYYCAADRYSTYPYAKGTEFYYWGQGTQVTVSS | low polyreactivity
29 | QVQLVESGGGLVQAGGSLSLSCAASGSIFFNNAMGWYRQAPGKERELVAAITWRDGSTNYADSVKGRFTISRDIAKNTVYLQMNSLKPEDTAVYYCNKVKEFGNVWFLPKYNYWGQGTQVTVSS | low polyreactivity
30 | QVQLVESGGGLVQAGGSLSLSCAASGSIFGENAKGWYRQAPGKERELVAAITWGGTSTYYADSVKGRFTISRDNAKNTVYLQMNSLKPEDTAVYYCNTPRYVRRQGVKRYDYWGQGTQVTVSS | low polyreactivity
31 | QVQLVESGGGLVQAGGSLSLSCAASGSIFGFNAMGWYRQAPGKERELVAAINNGGSTNYADSVKGRFTISRDNAKNTVYLQMNSLNPEDTSVYYCAAVGGWRWSNQDYRYPYYYWGQGTQVTVSS | high polyreactivity
32 | QVQLVESGGGLVQAGGSLSLSCAASGSIFGGYTMGRKRQAPGKERELVAAISSVGSTYYADSVKGRFTISRDNAKNTVYLQMNSLKTEDTAVYYCATSTYAYRRNSNYYSLPRFGYWGQGTQVSVSS | high polyreactivity
33 | QVQLVESGGGLVQAGGSLSLSCAASGSIFPHYAMGWYRQAPGKERELVAAISRGGSTNYADSVKGRFTISRDNAKNTVYLQMISLKPEDTAVYYCNARVYTKDYKRYDYWGQGTQVTVSS | high polyreactivity
34 | QVQLVESGGGLVQAGGSLSLSCAASGSIFYGYAMGWYRQAPGKERELVAAITSGGRTYYADSVKGRFTISRDNAKNTVYLQMNSLKPEDTAVYYCNAVYRKTSYGYWGQGTQVTVSS | high polyreactivity
35 | QVQLVESGGGLVQAGGSLSLSCAASGSILDRNTMGWYRQAPGKERELVAAITGSGSRTYYADSVKGRFTISRDNAKNTVYLQMNSLKPEDTAVYYCAAYTHSWTGDNYWGQGTQVTVSS | high polyreactivity
36 | QVQLVESGGGLVQAGGSLSLSCAASGSTFGYYARGWYRQAPGKERELVATITIGGYTHYADSVKGRFTISRDNAKNTVYLQMNSLKPEDTAFYYCAKRYYTNRHSRAFGYWGQGTQVTVSS | high polyreactivity
37 | QVQLVESGGGLVQAGGSLSLSCAASGSTFPEYVMGWYRQAPGKERELVAAITRRGGRTYYADSVKGRFTISRDNAKNTVYLQMNSLKPEDTEVYYCAAKSAVVVCMDSWGQGTQVTVSS | high polyreactivity
38 | QVQLVESGGGLVQAGGSLSLSCAASGSTFSIYTMGWYRQAPGKERELVAVITKSGGSTYYADSVKGRFTISRDNAKNTVYLQMNSLKPEDTAVYYCAARRRGARHDYWGQGTQVTVSS | high polyreactivity
39 | QVQLVESGGGLVQAGGSLSLSCAASGSTFYHYAMGWYRQAPGKERELVAAISSSGGRTYYADSVKGRFTISRDNAKYTVYLQMNSLKPEDTAVYYCAARAKTSGSIEDYWGQGTQVTVSS | high polyreactivity
40 | QVQLVESGGGLVQAGGSLSLSCAASGSTIVVNAMGWYRQAPGKERELVASISWTTCSTYYADSVKGRFTISRDNAKNTVYLQMNSLKPEDTAVYYCAADILPRYSQFDYWGQGTQVTVSS | low polyreactivity
41 | QVQLVESGGGLVQAGGSLSLSCAASGSTSVLNAMGWYRHAPGKERELVAALTSGVDSTYYADSVKGRFTISRDNAKNTVYLQMNSVKREDTAVYYCATVVDALDNSYKRVYLFDYWGQGTQVTVSS | low polyreactivity
42 | QVQLVESGGGLVQAGGSLSLSCAASGTFSPYAMGWYRQAPGKERELVADITSNTGRTYAASVKGRFTISRDNAKNTVYLQMNSLKPEDTAVYYCNTYGSGTHSTGYDYWGQGTQVTVSS | low polyreactivity
43 | QVQLVESGGGLVQAGGSLSLSCAASRFTIGLYAMGWYRQAPGKEREMVAVISSSGGSTYYADSVKGRFTISRDNAKNTVYLQMNSLKPEDTAVYYCAAEWHDYKFDVTYDYWGQGTQVTVSS | low polyreactivity
